The values that follow come from article PMC10779317, “Crosstalk between G-Quadruplexes and Dnmt3a-Mediated Methylation of the c-MYC Oncogene Promoter”.

For one series, the target named is Dnmt3a-CD (mouse (murine), UniProt O88508 630-908). Nature of the series: fluorescence polarization; 100 uM AdoHcy; 20 mM HEPES-NaOH pH 7.5, 100 mM KCl, 1 mM EDTA, 1 mM DTT, 100 uM AdoHcy, 10 nM DNA (60 nM for PWWP); FP temperature not stated; methylation competition at 37 C. To be noted: protein: recombinant, tags: N-terminal 6xHis, chain copies: 4. (Polarisation of emitted light reports the rotation of a fluorescent probe.)

The target in another series is M.SssI (UniProt P15840 1-386). The description is as above. The following applies: protein: recombinant; label: 5'-FAM; intramolecular parallel G4.
M.SssI, sequence (P15840 whole entry, the tested form may be a part): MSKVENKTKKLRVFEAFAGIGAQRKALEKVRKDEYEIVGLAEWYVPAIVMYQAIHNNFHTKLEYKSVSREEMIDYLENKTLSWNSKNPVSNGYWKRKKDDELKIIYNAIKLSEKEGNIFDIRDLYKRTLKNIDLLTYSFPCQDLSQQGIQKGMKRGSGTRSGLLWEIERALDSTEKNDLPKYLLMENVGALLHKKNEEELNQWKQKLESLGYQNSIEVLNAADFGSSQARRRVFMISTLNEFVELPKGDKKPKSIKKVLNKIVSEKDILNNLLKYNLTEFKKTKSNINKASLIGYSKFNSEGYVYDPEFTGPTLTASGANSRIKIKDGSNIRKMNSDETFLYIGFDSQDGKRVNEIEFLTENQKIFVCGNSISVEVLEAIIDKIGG
The next series has as its target Dnmt3a PWWP domain (UniProt O88508 288-346). Briefly: fluorescence polarization; 100 uM AdoHcy; 60 nM DNA; 20 mM HEPES-NaOH pH 7.5, 100 mM KCl, 1 mM EDTA, 1 mM DTT, 100 uM AdoHcy, 10 nM DNA (60 nM for PWWP); FP temperature not stated; methylation competition at 37 C. The following applies: protein: recombinant; label: 5'-FAM; intramolecular parallel G4.

B1: 30Uf/30Df (dsDNA)
DNA 1: CTGAATACTACTTGCGCTCTCTAACCTGAT
DNA 2: ATCAGGTTAGAGAGCGCAAGTAGTATTCAG
Regarding B1, the Kd – broadly, a measure of binding affinity in units of concentration – in the series with Dnmt3a-CD (label: 5'-FAM on both strands, blunt) is 220 ± 30 nM.

B2: 27fG4 (structured_DNA)
DNA: TGGGGAGGGTGGGGAGGGTGGGGAAGG
For the molecule B2, the Kd with M.SssI stood at 1200 ± 600 nM; in the series with Dnmt3a-CD (label: 5'-FAM, intramolecular parallel G4) it was 120 ± 30 nM; with Dnmt3a PWWP domain it was 900 ± 200 nM.
